{"source": "paper PMC10470402", "target": "S. pombe HT-Gemin2 (S. pombe) (UniProt P0CU08)", "sequence (P0CU08 whole entry)": "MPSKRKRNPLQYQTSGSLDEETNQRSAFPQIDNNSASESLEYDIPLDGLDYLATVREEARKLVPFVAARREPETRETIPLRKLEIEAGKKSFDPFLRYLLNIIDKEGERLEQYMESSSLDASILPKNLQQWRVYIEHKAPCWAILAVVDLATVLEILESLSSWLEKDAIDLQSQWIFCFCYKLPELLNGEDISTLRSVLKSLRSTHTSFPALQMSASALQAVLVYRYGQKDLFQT", "assay": "pull-down", "data": [{"substance": "S. pombe SmD1/SmD2 subcomplex, HT-tag removed (from UniProt O42661 1-117; O14036 1-115)", "values": [{"measurement": "percent bound", "result": 4.1, "unit": "%"}, {"measurement": "percent bound (D1/D2 and F/E/G added together)", "result": 15.1, "unit": "%"}]}, {"substance": "S. pombe SmF/SmE/SmG subcomplex, HT-tag removed (from UniProt O59734 1-78; Q9USZ3 1-84; O74966 1-77)", "values": [{"measurement": "percent bound", "result": 7.4, "unit": "%"}, {"measurement": "percent bound (D1/D2 and F/E/G added together)", "result": 9.2, "unit": "%"}]}]}
